This note sets out measurements from patent publication US20260116963A1 (GENERATE BIOMEDICINES, published 2026).

The target of one assay is T1, mouse IL-13 (mouse, UniProt P20109 19-131, limits assumed).
T1 construct: also called recombinant mouse IL-13
T1 sequence (looked up): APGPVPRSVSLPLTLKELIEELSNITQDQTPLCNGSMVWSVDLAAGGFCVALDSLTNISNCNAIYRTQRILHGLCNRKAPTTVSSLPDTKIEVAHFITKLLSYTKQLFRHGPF
In words: SPR (Biacore 8K+), antibody captured on anti-human IgG Fc chip, IL-13 as analyte, 25 C. For orientation: In SPR one partner is held on a chip, and binding of the other changes the refractive index at the surface.

The target of the next assay is human FcγRIIIb-NA1 (human, UniProt O75015 17-200, limits assumed, biotinylated (site not stated)). In words: BLI (Octet RH96), biotinylated Fcγ receptor on streptavidin sensors. For orientation: Biolayer interferometry detects binding as a change in optical thickness at a sensor tip.
A further assay has as its target human FcγRIIIb-NA2 (human, UniProt O75015 17-200, limits assumed, biotinylated (site not stated)). Described as above.
In the next assay the target is cynomolgus IL-13 (cynomolgus, UniProt Q0PW92 21-132). The assay is described as follows: cell-based or functional assay.
Assay [1] addresses T2, human FcγRIIb (human, UniProt P31994 46-217, limits assumed, biotinylated (site not stated)).
T2 sequence (looked up): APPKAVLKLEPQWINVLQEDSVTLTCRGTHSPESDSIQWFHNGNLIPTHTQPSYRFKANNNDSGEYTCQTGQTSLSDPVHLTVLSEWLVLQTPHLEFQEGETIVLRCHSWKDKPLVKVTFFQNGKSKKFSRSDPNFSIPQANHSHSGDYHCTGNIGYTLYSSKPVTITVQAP
In words: BLI (summary of Example 8).

Assay [2] addresses T3, human FcγRIIa-H167 (human, UniProt P12318 36-218, limits assumed, biotinylated (site not stated)).
T3 sequence (looked up): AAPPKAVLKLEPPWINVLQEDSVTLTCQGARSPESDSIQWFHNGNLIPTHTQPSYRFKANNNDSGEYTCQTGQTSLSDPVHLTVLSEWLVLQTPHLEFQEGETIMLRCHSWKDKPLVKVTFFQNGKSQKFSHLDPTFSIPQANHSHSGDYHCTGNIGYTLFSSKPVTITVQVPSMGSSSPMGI
The assay is described as follows: BLI (summary of Example 8).

The target in assay [3] is T4, human FcγRI (human, UniProt P12314 16-288, limits assumed, biotinylated (site not stated)). In words: BLI (summary of Example 8).
Assay [4] deals with T5, human FcγRIIa-R167 (human, UniProt P12318 36-218, limits assumed, biotinylated (site not stated)).
T5 sequence (looked up): T3 sequence (looked up) with H132R
The assay is described as follows: BLI (summary of Example 8).

Assay [5] has as its target T6, HIS-tagged human FcRn (human, UniProt P55899 24-297; P61769 21-119).
T6 construct: not shown: HIS tag
In words: SPR (Biacore 8K+), pH 6.0, 25 C, steady-state fit.

Assay [6] has as its target T7, human IL-13 (human, UniProt P35225 25-146, limits assumed). The assay is described as follows: cell-based or functional assay.
Assay [7] concerns the target T6, HIS-tagged human FcRn. In words: SPR (Biacore 8K+), antibody captured on anti-human Fab CM4 chip, HIS-tagged human FcRn 9.8-5000 nM as analyte, pH 6.0, 25 C, steady-state fit.
Assay [8] concerns the target T7, human IL-13. The assay is described as follows: SPR (Biacore 8K+), antibody captured on anti-human Fc CM4 chip, human IL-13 0.6-10 nM as analyte, 37 C, 1:1 fit.
Assay [9] deals with T7, human IL-13. The assay is described as follows: cell-based or functional assay. The source holds these as a separate data set.
The next assay concerns the target human FcγRIIIa-F176 (human, UniProt P08637 17-208, biotinylated (site not stated)). The assay is described as follows: BLI (Octet RH96), biotinylated Fcγ receptor on streptavidin sensors, antibody at 10,000 nM.
The next assay deals with human FcγRIIIa-V176 (human, UniProt P08637 17-208, biotinylated (site not stated)). Described as above.
The target in assay [10] is T7, human IL-13. In words: cell-based or functional assay. The source holds these as a separate data set.
For assay [11], the target named is T7, human IL-13. The assay is described as follows: SPR (Biacore 8K+), antibody captured on anti-human pAb CM4 chip, human IL-13 0.6-10 nM as analyte, 37 C, 1:1 fit.
The target of assay [12] is T7, human IL-13. In words: KinExA, solution equilibrium, free antigen captured on Ref1-coated beads, 25 C. For orientation: Kinetic exclusion samples the free partner from a solution-phase mixture.
Assay [13] concerns the target T2, human FcγRIIb. In words: BLI (Octet RH96), biotinylated Fcγ receptor on streptavidin sensors, antibody at 10,000 nM.
Assay [14] addresses T3, human FcγRIIa-H167. Described as above.
Assay [15] concerns the target T4, human FcγRI. The assay is described as above.
The target of assay [16] is T5, human FcγRIIa-R167. Described as above.

Substitutions are numbered along the chain they refer to.

T7 sequence (P35225 other isoform, or with tags, fused parts or gaps limits assumed): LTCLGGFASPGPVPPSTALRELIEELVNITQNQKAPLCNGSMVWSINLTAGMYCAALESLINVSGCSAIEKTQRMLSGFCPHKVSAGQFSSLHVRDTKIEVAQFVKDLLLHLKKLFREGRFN
T6 sequence (P55899 24-297 limits assumed, chain 1 of 2): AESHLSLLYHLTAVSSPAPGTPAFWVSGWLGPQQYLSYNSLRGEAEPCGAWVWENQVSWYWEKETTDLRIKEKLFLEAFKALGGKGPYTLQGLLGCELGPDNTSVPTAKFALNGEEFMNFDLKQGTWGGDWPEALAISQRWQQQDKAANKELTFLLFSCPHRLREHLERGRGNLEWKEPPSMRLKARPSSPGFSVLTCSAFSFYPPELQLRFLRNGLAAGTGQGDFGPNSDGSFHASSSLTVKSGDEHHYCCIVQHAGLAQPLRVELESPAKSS
T6 sequence (P61769 21-119 limits assumed, chain 2 of 2): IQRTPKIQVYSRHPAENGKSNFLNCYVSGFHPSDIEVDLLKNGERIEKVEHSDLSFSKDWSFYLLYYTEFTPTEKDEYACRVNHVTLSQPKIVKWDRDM
Sequence of cynomolgus IL-13 (Q0PW92 entry or part of it): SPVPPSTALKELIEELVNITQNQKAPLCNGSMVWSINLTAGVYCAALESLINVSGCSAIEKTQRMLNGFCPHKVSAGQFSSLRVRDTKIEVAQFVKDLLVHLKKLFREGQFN
T4 sequence (P12314 16-288 limits assumed): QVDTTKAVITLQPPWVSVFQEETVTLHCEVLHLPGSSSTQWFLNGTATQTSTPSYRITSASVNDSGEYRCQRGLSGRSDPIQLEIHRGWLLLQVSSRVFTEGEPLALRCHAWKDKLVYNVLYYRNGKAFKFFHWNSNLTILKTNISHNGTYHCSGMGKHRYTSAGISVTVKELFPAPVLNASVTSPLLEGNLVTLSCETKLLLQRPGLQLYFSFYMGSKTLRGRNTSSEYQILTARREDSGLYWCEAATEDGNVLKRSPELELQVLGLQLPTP
Sequence of human FcγRIIIb-NA2 (O75015 17-200 N65S limits assumed): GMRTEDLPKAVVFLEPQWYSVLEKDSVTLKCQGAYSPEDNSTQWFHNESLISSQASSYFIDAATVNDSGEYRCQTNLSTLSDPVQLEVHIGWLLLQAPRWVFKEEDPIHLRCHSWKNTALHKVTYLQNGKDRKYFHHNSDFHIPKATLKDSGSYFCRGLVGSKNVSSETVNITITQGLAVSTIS
Sequence of human FcγRIIIb-NA1 (O75015 other isoform, or with tags, fused parts or gaps limits assumed): as the sequence (O75015 17-200 N65S limits assumed) above, with S20R, S49N, N66D, I90V counted along it
Sequence of human FcγRIIIa-F176 (P08637 17-208 limits assumed): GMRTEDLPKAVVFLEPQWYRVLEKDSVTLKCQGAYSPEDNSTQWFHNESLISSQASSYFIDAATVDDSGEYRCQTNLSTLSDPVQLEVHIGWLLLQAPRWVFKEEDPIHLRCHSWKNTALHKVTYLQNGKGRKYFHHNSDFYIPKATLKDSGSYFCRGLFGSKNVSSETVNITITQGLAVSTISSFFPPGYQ
Sequence of human FcγRIIIa-V176 (P08637 17-208 F176V limits assumed): as the sequence (P08637 17-208 limits assumed) above, with F160V counted along it

B1: AbAB (antibody, human IgG1, kappa)
heavy: QVTLRESGPALVKPTQTLTLTCTVSGASLSAYSVNWIRQPPGKALEWLAMIWGDGKIVYNSALKSRLTISKDTSKNQVVLTMTNMDPVDTATYYCAGDGYFPYAMDNWGQGSLVTVSSASTKGPSVFPLAPSSKSTSGGTAALGCLVKDYFPEPVTVSWNSGALTSGVHTFPAVLQSSGLYSLSSVVTVPSSSLGTQTYICNVNHKPSNTKVDKRVEPKSCDKTHTCPPCPAPEFEGGPSVFLFPPKPKDTLYITREPEVTCVVVDVSHEDPEVKFNWYVDGVEVHNAKTKPREEQYNSTYRVVSVLTVLHQDWLNGKEYKCKVSNKALPASIEKTISKAKGQPREPQVYTLPPSREEMTKNQVSLTCLVKGFYPSDIAVEWESNGQPENNYKTTPPVLDSDGSFFLYSKLTVDKSRWQQGNVFSCSVMHEALHNHYTQKSLSLSPGK
light: DIVMTQSPDSLSVSLGERATINCRASKSVDSYGNSYMHWYQQKPGQPPKLLIYLASNLESGVPDRFSGSGSGTDFTLTISSLQAEDVAVYYCQQNNEDPRTFGGGTKVEIKRTVAAPSVFIFPPSDEQLKSGTASVVCLLNNFYPREAKVQWKVDNALQSGNSQESVTEQDSKDSTYSLSSTLTLSKADYEKHKVYACEVTHQGLSSPVTKSFNRGEC
notes: same variable regions as AbG; also called Antibody AbAB
For B1, the binding result with mouse IL-13 is “no binding”; with human FcγRIIIb-NA1, “no binding (tested: 10,000 nM)”; with human FcγRIIIb-NA2, “no binding (tested: 10,000 nM)”; in the assay with human FcγRIIb [1], “binds”; with human FcγRIIa-H167 [2], “binds”; with human FcγRI [3], “binds”. Besides, the binding result with human FcγRIIa-R167 [4], with human FcγRIIIa-F176 and with human FcγRIIIa-V176 was “binds” throughout. For the same molecule, the “Mean IC50 (nM) Donor 1, Phospho-STAT6 assay in cynomolgus CD14+ monocytes” value in the assay with cynomolgus IL-13 turned out to be 18.8 nM. The “Mean IC50 (nM) Donor 2, Phospho-STAT6 assay in cynomolgus CD14+ monocytes” value with cynomolgus IL-13 turned out to be 15.1 nM. Also, the “Mean IC50 (nM) Donor 3, Phospho-STAT6 assay in cynomolgus CD14+ monocytes” value with cynomolgus IL-13 came out at 18.1 nM. Besides, in the assay with HIS-tagged human FcRn [5], the “fold higher affinity than Ref2” value was 6 fold. Besides, the “Mean IC50 (nM) Donor 1, Phospho-STAT6 assay in human CD14+ monocytes” value in the assay with human IL-13 [6] is 34.9 nM. Moreover, the “Mean IC50 (nM) Donor 2, Phospho-STAT6 assay in human CD14+ monocytes” value in the assay with human IL-13 [6] is 33 nM. Moreover, in the assay with human IL-13 [6], the “Mean IC50 (nM) Donor 3, Phospho-STAT6 assay in human CD14+ monocytes” value came to 37.7 nM. The results for the Kd with HIS-tagged human FcRn [7] and in the assay with human IL-13 [8] were 129 nM and 0.00722 nM, respectively. Further, in the assay with human IL-13 [8], the koff (usually a measure of how fast the partners let go of each other) is 4.85e-06 s⁻¹. Besides, the association rate constant (kon) (commonly the second-order rate constant of association) with human IL-13 [8] amounted to 676000 M⁻¹ s⁻¹. Also, the “Mean IC50 (nM), HEK-Blue IL-4/IL-13 assay with 3.7 nM IL-13” value in the assay with human IL-13 [9] amounted to 0.113 nM.

B2: Ref2 (antibody, human IgG4 S228P, kappa)
heavy: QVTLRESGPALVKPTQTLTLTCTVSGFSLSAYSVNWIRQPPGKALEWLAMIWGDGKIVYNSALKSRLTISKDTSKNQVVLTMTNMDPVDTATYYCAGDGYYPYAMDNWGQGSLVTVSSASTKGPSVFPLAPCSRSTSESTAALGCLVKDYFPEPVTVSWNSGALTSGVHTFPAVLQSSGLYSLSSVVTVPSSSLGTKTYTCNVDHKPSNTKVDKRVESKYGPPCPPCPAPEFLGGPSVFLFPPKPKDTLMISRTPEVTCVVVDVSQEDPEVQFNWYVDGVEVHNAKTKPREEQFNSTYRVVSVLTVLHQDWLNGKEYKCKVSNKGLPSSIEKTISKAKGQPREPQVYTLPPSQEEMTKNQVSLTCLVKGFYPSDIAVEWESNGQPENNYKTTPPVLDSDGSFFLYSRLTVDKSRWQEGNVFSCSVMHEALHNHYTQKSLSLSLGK
light: B1 light with Y36F
notes: hIgG4; copies: 2 + 2
For the molecule B2, the binding result with mouse IL-13 was “no binding”; with human FcγRIIIb-NA1 it was “no binding (tested: 10,000 nM)”; with human FcγRIIIb-NA2, “no binding (tested: 10,000 nM)”; in the assay with human FcγRIIIa-F176, “binds”; in the assay with human FcγRIIb [13], “binds”; with human FcγRIIa-H167 [14] it was “binds”. Moreover, the binding result with human FcγRI [15] and with human FcγRIIa-R167 [16] was “binds” each time. In addition, the “IC50, HEK-Blue IL-13Ra1/IL-4Ra STAT6-SEAP reporter assay” value with human IL-13 [10] stood at 0.277 µg/mL. For the same molecule, the results for the Kd with human IL-13 [11], with human IL-13 [12] and with HIS-tagged human FcRn [7] were 0.0512 nM, 0.00909 nM and 734 nM, respectively. Further, the results for the koff in the assay with human IL-13 [11] and with human IL-13 [12] were 3.22e-05 s⁻¹ and 9.76e-06 s⁻¹, respectively. The figures for the kon in the assay with human IL-13 [11] and with human IL-13 [12] were 695000 M⁻¹ s⁻¹ and 1.07e+06 M⁻¹ s⁻¹, respectively.
